Assay results as given in PMC6467385, “ER intrabody-mediated inhibition of interferon α secretion by mouse macrophages and dendritic cells” (PLoS ONE, 2019).

Biological target: T1, mouse IFNα4 without tag (Mus musculus, UniProt P07351)
T1 construct: Expressed with an N-terminal mouse IgG signal peptide (HVM06_MOUSE) and a C-terminal TEV site before the tags; Produced in a glycosylation deficient cell line; also called Interferon α; not shown: Twin-Strep-tag, C-terminal, cleaved; His8, C-terminal, cleaved
Test: BLI; Octet Red96; αIFNα-ab covalently coupled (EDC/NHS) to Ni-NTA tips, increasing concentrations of IFNα4 in solution; kinetic buffer 0.2% BSA in PBS with 0.05% Tween 20; association 800 s, dissociation 1800 s; 1:1 interaction model
Details: both partners purified

T1 sequence (P07351 25-186): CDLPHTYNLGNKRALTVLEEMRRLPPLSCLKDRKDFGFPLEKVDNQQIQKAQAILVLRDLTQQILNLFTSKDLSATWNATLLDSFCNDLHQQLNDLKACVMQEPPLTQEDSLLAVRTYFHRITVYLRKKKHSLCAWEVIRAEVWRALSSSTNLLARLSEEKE

B1: soluble scFv αIFNα-ab (scFv, V domains shown)
VH: EVQLVESGGGLVRPGGSLKLSCTASGFTFSDFDMAWVRQAPTRGLEWVASISSGPANTHYRGSVRGRFTGSRNDAKSTLYLQMDSLRSEDTATYYCARPFGSGYYFDYWGQGVVVTVSS
VL: DTVLTQSPALAVSLGQRVTISCKASESVSSSTSNYMHWYQQKPGQRPKLLIYLASNLESGVPARFSGSGSGTDFILNIDPVEADDVATYFCQQSWNDPPTFGSGTKVELK
notes: VH of the rat anti-mouse IFNα hybridoma antibody 4EA1; linker, printed as (GGGGS)3; VL (kappa) of the rat anti-mouse IFNα hybridoma antibody 4EA1; Order VH-(GGGGS)3-VL; made with a signal peptide (secreted); also called anti-IFNα scFv; soluble form of the intrabody; not shown: His6, C-terminal, kept
  Kd: 38.6 nM
  koff: 0.00023 s⁻¹
  kon: 5970 M⁻¹ s⁻¹
